Assay [1] concerns the target binding partner of C5A (XPA23). Put plainly: Biacore. (In general: SPR reads the build-up and loss of mass on a sensor chip optically.)
Assay [2] has as its target binding partner of C5A (XPA23). Description: Biacore K-off.

B1: C5A (XPA23) VH Y32D (antibody, V domains shown)
VH: EVQLLESGGGLVQPGGSLRLSCAASGFTFSKDFMFWVRQAPGKGLEWVSVISPSGGMTRYADSVKGRFTISRDNSKNTLYLQMNSLRAEDTAVYYCARVGYGGNSDYWGQGTLVTVSS
VL: DIQMTQSPSSVSASVGDRLTIICRASQDINRWLAWYQQTPGNAPKLLIHSATSLQSGVPSRFSGSGSGTDFTLTINSLQPEDFATYYCQQADSFPLTFGGGTKVEIK
For the molecule B1, the fold affinity vs original in assay [1] turned out to be 0.68 fold. The fold difference in affinity vs original in assay [2] came out at 0.68 fold.

B2: C5A (XPA23) VH Y32S (antibody, V domains shown)
VH: EVQLLESGGGLVQPGGSLRLSCAASGFTFSKSFMFWVRQAPGKGLEWVSVISPSGGMTRYADSVKGRFTISRDNSKNTLYLQMNSLRAEDTAVYYCARVGYGGNSDYWGQGTLVTVSS
VL: DIQMTQSPSSVSASVGDRLTIICRASQDINRWLAWYQQTPGNAPKLLIHSATSLQSGVPSRFSGSGSGTDFTLTINSLQPEDFATYYCQQADSFPLTFGGGTKVEIK
Consider B2, for which the fold affinity vs original in assay [1] was 1.33 fold. Moreover, the fold difference in affinity vs original in assay [2] amounted to 1.33 fold.

B3: C5A (XPA23) VH F33Y (antibody, V domains shown)
VH: EVQLLESGGGLVQPGGSLRLSCAASGFTFSKYYMFWVRQAPGKGLEWVSVISPSGGMTRYADSVKGRFTISRDNSKNTLYLQMNSLRAEDTAVYYCARVGYGGNSDYWGQGTLVTVSS
VL: DIQMTQSPSSVSASVGDRLTIICRASQDINRWLAWYQQTPGNAPKLLIHSATSLQSGVPSRFSGSGSGTDFTLTINSLQPEDFATYYCQQADSFPLTFGGGTKVEIK
Regarding B3, the fold affinity vs original in assay [1] stood at 0.77 fold. Moreover, in assay [2], the fold difference in affinity vs original amounted to 0.77 fold.

B4: C5A (XPA23) VH Y32E (antibody, V domains shown)
VH: EVQLLESGGGLVQPGGSLRLSCAASGFTFSKEFMFWVRQAPGKGLEWVSVISPSGGMTRYADSVKGRFTISRDNSKNTLYLQMNSLRAEDTAVYYCARVGYGGNSDYWGQGTLVTVSS
VL: DIQMTQSPSSVSASVGDRLTIICRASQDINRWLAWYQQTPGNAPKLLIHSATSLQSGVPSRFSGSGSGTDFTLTINSLQPEDFATYYCQQADSFPLTFGGGTKVEIK
Regarding B4, the fold affinity vs original in assay [1] was determined as 0.12 fold. In assay [2], the fold difference in affinity vs original was 0.12 fold.

B5: C5A (XPA23) VH S30I (antibody, V domains shown)
VH: EVQLLESGGGLVQPGGSLRLSCAASGFTFIKYFMFWVRQAPGKGLEWVSVISPSGGMTRYADSVKGRFTISRDNSKNTLYLQMNSLRAEDTAVYYCARVGYGGNSDYWGQGTLVTVSS
VL: DIQMTQSPSSVSASVGDRLTIICRASQDINRWLAWYQQTPGNAPKLLIHSATSLQSGVPSRFSGSGSGTDFTLTINSLQPEDFATYYCQQADSFPLTFGGGTKVEIK
On to B5, for which the fold difference in affinity vs original in assay [1] and in assay [2] was 0.08 fold throughout.

B6: C5A (XPA23) VH Y32T (antibody, V domains shown)
VH: EVQLLESGGGLVQPGGSLRLSCAASGFTFSKTFMFWVRQAPGKGLEWVSVISPSGGMTRYADSVKGRFTISRDNSKNTLYLQMNSLRAEDTAVYYCARVGYGGNSDYWGQGTLVTVSS
VL: DIQMTQSPSSVSASVGDRLTIICRASQDINRWLAWYQQTPGNAPKLLIHSATSLQSGVPSRFSGSGSGTDFTLTINSLQPEDFATYYCQQADSFPLTFGGGTKVEIK
In the case of B6, the fold difference in affinity vs original in assay [1] and in assay [2] was 0.8 fold each time.

B7: C5A (XPA23) VH Y32H (antibody, V domains shown)
VH: EVQLLESGGGLVQPGGSLRLSCAASGFTFSKHFMFWVRQAPGKGLEWVSVISPSGGMTRYADSVKGRFTISRDNSKNTLYLQMNSLRAEDTAVYYCARVGYGGNSDYWGQGTLVTVSS
VL: DIQMTQSPSSVSASVGDRLTIICRASQDINRWLAWYQQTPGNAPKLLIHSATSLQSGVPSRFSGSGSGTDFTLTINSLQPEDFATYYCQQADSFPLTFGGGTKVEIK
In the case of B7, the fold affinity vs original in assay [1] turned out to be 0.62 fold. Also, the fold difference in affinity vs original in assay [2] amounted to 0.62 fold.

B8: C5A (XPA23) VH Y32N (antibody, V domains shown)
VH: EVQLLESGGGLVQPGGSLRLSCAASGFTFSKNFMFWVRQAPGKGLEWVSVISPSGGMTRYADSVKGRFTISRDNSKNTLYLQMNSLRAEDTAVYYCARVGYGGNSDYWGQGTLVTVSS
VL: DIQMTQSPSSVSASVGDRLTIICRASQDINRWLAWYQQTPGNAPKLLIHSATSLQSGVPSRFSGSGSGTDFTLTINSLQPEDFATYYCQQADSFPLTFGGGTKVEIK
For the molecule B8, in assay [1], the fold affinity vs original is 0.04 fold. For the same molecule, the fold difference in affinity vs original in assay [2] came out at 0.04 fold.

B9: C5A (XPA23) VH S30L (antibody, V domains shown)
VH: EVQLLESGGGLVQPGGSLRLSCAASGFTFLKYFMFWVRQAPGKGLEWVSVISPSGGMTRYADSVKGRFTISRDNSKNTLYLQMNSLRAEDTAVYYCARVGYGGNSDYWGQGTLVTVSS
VL: DIQMTQSPSSVSASVGDRLTIICRASQDINRWLAWYQQTPGNAPKLLIHSATSLQSGVPSRFSGSGSGTDFTLTINSLQPEDFATYYCQQADSFPLTFGGGTKVEIK
Turning to B9, the fold difference in affinity vs original in assay [1] and in assay [2] was 0.91 fold in each case.

B10: C5A (XPA23) VH F33K (antibody, V domains shown)
VH: EVQLLESGGGLVQPGGSLRLSCAASGFTFSKYKMFWVRQAPGKGLEWVSVISPSGGMTRYADSVKGRFTISRDNSKNTLYLQMNSLRAEDTAVYYCARVGYGGNSDYWGQGTLVTVSS
VL: DIQMTQSPSSVSASVGDRLTIICRASQDINRWLAWYQQTPGNAPKLLIHSATSLQSGVPSRFSGSGSGTDFTLTINSLQPEDFATYYCQQADSFPLTFGGGTKVEIK
Turning to B10, the fold affinity vs original in assay [1] is 0.85 fold. The fold difference in affinity vs original in assay [2] came out at 0.85 fold.

B11: C5A (XPA23) VH F33N (antibody, V domains shown)
VH: EVQLLESGGGLVQPGGSLRLSCAASGFTFSKYNMFWVRQAPGKGLEWVSVISPSGGMTRYADSVKGRFTISRDNSKNTLYLQMNSLRAEDTAVYYCARVGYGGNSDYWGQGTLVTVSS
VL: DIQMTQSPSSVSASVGDRLTIICRASQDINRWLAWYQQTPGNAPKLLIHSATSLQSGVPSRFSGSGSGTDFTLTINSLQPEDFATYYCQQADSFPLTFGGGTKVEIK
B11: the fold affinity vs original in assay [1] turned out to be 0.97 fold. Besides, in assay [2], the fold difference in affinity vs original was 0.97 fold.

B12: C5A (XPA23) VH F33Q (antibody, V domains shown)
VH: EVQLLESGGGLVQPGGSLRLSCAASGFTFSKYQMFWVRQAPGKGLEWVSVISPSGGMTRYADSVKGRFTISRDNSKNTLYLQMNSLRAEDTAVYYCARVGYGGNSDYWGQGTLVTVSS
VL: DIQMTQSPSSVSASVGDRLTIICRASQDINRWLAWYQQTPGNAPKLLIHSATSLQSGVPSRFSGSGSGTDFTLTINSLQPEDFATYYCQQADSFPLTFGGGTKVEIK
B12: the fold affinity vs original in assay [1] stood at 0.78 fold. For the same molecule, the fold difference in affinity vs original in assay [2] came out at 0.78 fold.

B13: C5A (XPA23) VH S30G (antibody, V domains shown)
VH: EVQLLESGGGLVQPGGSLRLSCAASGFTFGKYFMFWVRQAPGKGLEWVSVISPSGGMTRYADSVKGRFTISRDNSKNTLYLQMNSLRAEDTAVYYCARVGYGGNSDYWGQGTLVTVSS
VL: DIQMTQSPSSVSASVGDRLTIICRASQDINRWLAWYQQTPGNAPKLLIHSATSLQSGVPSRFSGSGSGTDFTLTINSLQPEDFATYYCQQADSFPLTFGGGTKVEIK
Consider B13, for which the fold difference in affinity vs original in assay [1] and in assay [2] was 0.13 fold in each case.

B14: C5A (XPA23) VH S30W (antibody, V domains shown)
VH: EVQLLESGGGLVQPGGSLRLSCAASGFTFWKYFMFWVRQAPGKGLEWVSVISPSGGMTRYADSVKGRFTISRDNSKNTLYLQMNSLRAEDTAVYYCARVGYGGNSDYWGQGTLVTVSS
VL: DIQMTQSPSSVSASVGDRLTIICRASQDINRWLAWYQQTPGNAPKLLIHSATSLQSGVPSRFSGSGSGTDFTLTINSLQPEDFATYYCQQADSFPLTFGGGTKVEIK
For B14, the fold affinity vs original in assay [1] was found to be 0.77 fold. In addition, in assay [2], the fold difference in affinity vs original turned out to be 0.77 fold.

B15: C5A (XPA23) VH F33D (antibody, V domains shown)
VH: EVQLLESGGGLVQPGGSLRLSCAASGFTFSKYDMFWVRQAPGKGLEWVSVISPSGGMTRYADSVKGRFTISRDNSKNTLYLQMNSLRAEDTAVYYCARVGYGGNSDYWGQGTLVTVSS
VL: DIQMTQSPSSVSASVGDRLTIICRASQDINRWLAWYQQTPGNAPKLLIHSATSLQSGVPSRFSGSGSGTDFTLTINSLQPEDFATYYCQQADSFPLTFGGGTKVEIK
Take B15: the fold affinity vs original in assay [1] came to 0.92 fold. Moreover, the fold difference in affinity vs original in assay [2] worked out at 0.92 fold.

B16: C5A (XPA23) VH S30A (antibody, V domains shown)
VH: EVQLLESGGGLVQPGGSLRLSCAASGFTFAKYFMFWVRQAPGKGLEWVSVISPSGGMTRYADSVKGRFTISRDNSKNTLYLQMNSLRAEDTAVYYCARVGYGGNSDYWGQGTLVTVSS
VL: DIQMTQSPSSVSASVGDRLTIICRASQDINRWLAWYQQTPGNAPKLLIHSATSLQSGVPSRFSGSGSGTDFTLTINSLQPEDFATYYCQQADSFPLTFGGGTKVEIK
As to B16, the fold difference in affinity vs original in assay [1] and in assay [2] was 0.77 fold each time.

B17: C5A (XPA23) VH F33S (antibody, V domains shown)
VH: EVQLLESGGGLVQPGGSLRLSCAASGFTFSKYSMFWVRQAPGKGLEWVSVISPSGGMTRYADSVKGRFTISRDNSKNTLYLQMNSLRAEDTAVYYCARVGYGGNSDYWGQGTLVTVSS
VL: DIQMTQSPSSVSASVGDRLTIICRASQDINRWLAWYQQTPGNAPKLLIHSATSLQSGVPSRFSGSGSGTDFTLTINSLQPEDFATYYCQQADSFPLTFGGGTKVEIK
For B17, the fold affinity vs original in assay [1] stood at 0.73 fold. Moreover, the fold difference in affinity vs original in assay [2] was 0.73 fold.

B18: C5A (XPA23) VH F33T (antibody, V domains shown)
VH: EVQLLESGGGLVQPGGSLRLSCAASGFTFSKYTMFWVRQAPGKGLEWVSVISPSGGMTRYADSVKGRFTISRDNSKNTLYLQMNSLRAEDTAVYYCARVGYGGNSDYWGQGTLVTVSS
VL: DIQMTQSPSSVSASVGDRLTIICRASQDINRWLAWYQQTPGNAPKLLIHSATSLQSGVPSRFSGSGSGTDFTLTINSLQPEDFATYYCQQADSFPLTFGGGTKVEIK
As for B18, the fold difference in affinity vs original in assay [1] and in assay [2] was 0.78 fold throughout.

B19: C5A (XPA23) VH F33E (antibody, V domains shown)
VH: EVQLLESGGGLVQPGGSLRLSCAASGFTFSKYEMFWVRQAPGKGLEWVSVISPSGGMTRYADSVKGRFTISRDNSKNTLYLQMNSLRAEDTAVYYCARVGYGGNSDYWGQGTLVTVSS
VL: DIQMTQSPSSVSASVGDRLTIICRASQDINRWLAWYQQTPGNAPKLLIHSATSLQSGVPSRFSGSGSGTDFTLTINSLQPEDFATYYCQQADSFPLTFGGGTKVEIK
For the molecule B19, in assay [1], the fold affinity vs original came out at 0.86 fold. Moreover, in assay [2], the fold difference in affinity vs original worked out at 0.86 fold.

Values taken from patent publication US20110118447A1.
